Values of other authors, collected in paper PMC10256198 (European Heart Journal, 2023).

Conditions: stated in the introduction, no reference given

Substance: Ghrelin: endogenous 28 amino acid anabolic peptide hormone, activated by acylation of amino-acid 3 (GSSFLSPEHQRVQQRKESKKPPAKLQPR; Ghrelin-28; UniProt Q9UBU3 24-51, looked up)
- plasma half time: 24 to 30 min
